Measured values from the domain aggregation screens of Martell et al. (2025).

assay: soluble fraction after stress (log2 fold change); higher = more stays soluble; pooled small domains, quantitative proteomics; details: stress: 50 degC
Method in brief: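 Each library was heated to 50°C as a stress step. The libraries, made up of small protein domains, were pooled and analysed at high throughput by quantitative proteomics. The reported value is the base-two logarithm of the fold change in each protein's soluble amount after stress, taken as a measure of aggregation propensity. The higher the value, the more protein stays in solution.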

Sequence | soluble fraction (log2)
HMTVGENTYELIKKDIIFGVLPPLKKLKLQELKKIYNASVSTLREILSRLTGDGFVFSEEQKGFYVSPV | 0.00444
HMVDISLSDRELEVLRLLAMGLSNADISRRLYLSEGTIRNYMSGIFSKLNVSDRTQAVVIALREGLVNL | -0.48
HMANPMFAEIKKVQKQLNEMGYQAGPADGLWGNKTENAVKLLLSDNNLKWDGTFDQNEIKIIEEIFLSND | -0.256
HMPLNAFDVAGYRLGYGGGYFDRTLAALSPRPLAVGVGFEINRLESIRPEAHDQRLDWIVTENGAFRPA | -0.867
HMSTTHLTASVIKDKVNVRSEADSQNGAIIDKARTGERLLVTDYGNKWTGIVLPDGKRGYIMTEYLQF | 0.0443
HMPPNPELGKKLLKLRKEFKMTQDDVANILGMSRTSFSKYENGIANPPLQVMRKLASIYNVGLEYLI | -1.04
HMNKTQLQIEDEVLKPLIAEIFSKSKGRFGARKIRSKLMGLGYTASERRILRLMKELGLSSAG | -0.378
HMVKTANVAYSEFLKLVESDNISDVSIVGRTITGHLDDGTKFSTYTPPNDPSLIDKLTRKNVIIKSAPE | -0.00389
HMKPKDILLPNFTNLTLDEAKAKAEEVKLNLNVSEEKYDVQIEEGKIISQDPKYQPNYTVKEGSTVNVVVS | 0.161
HMDYKAELDNIIRDHLDMEGPLLPVLHAVMARFSYIPKDAIPIIARKLNLSSAEVSGVISFYHDFKKEK | -0.561
HMQKLSPKQRRGNIIELIKENPTITAKNISTIFNLNQRTIERDLAKLTEEGYIKYEGSSKDGKWVFL | 0.087
HMLKIVRSREEVESRLYTIYGNVKGRRLYNFYLSLIIDGLDIVKARTSKNVYYTNIRNLKNAGIDFSQKIN | -2.38
HMTVPNVVGQRILAAQDILKNLGLKVLVDTNLPNSQWGLRNVKSTNPGAGAVVRVGDTVTLIAR | 0.0114
HMDVLTARENEVLQLLAKGMSNKEIASVLVITEKTVKAHVSSILSKLNLSDRTQAALYAVKNGI | -0.151
HMNTDVEKQKVFTALFDDYFRRNSMTSLEKQLFLTALKTNFQNAQKTVAKDHPYYATYSLIISAIENYR | 0.145
HMYTTHTQSELNEAARFNGRATYQKGIYYNESKKEHFKVVNGKYQALPNVKQVNGDSWIDKTGITHKG | -0.171
HMRPLISQTLRIDRGEGDIAGPLGVLAKEYPHLSMGSYPFQKDGIYGAHVVIRGSDPGMVEAAMDKLKAAF | 0.018
HMRKPLDQSWVPDDDAMKILTNSGIEKEFIKNEIPEFILYWSDKGEISDSWNTKFISQIRRQWAKNQ | -0.222
HMDNPPDRAEIEQMLKDAGLTPEADAMAALSDLARTLDPGDFRQTLEKITLYKLGDSTPIGLDDIAAGAP | -0.0256

Sequence | soluble fraction (log2)
HMITTLLVENLQDVGMRLDHYLVYNLIKYSRSHIQSFIRSGDIRVNGKKVKTGYSLELKDLIHIEMP | -3.75
HMWTKKELWNAIAKLPKKQRTVVMMRIAQNLPYKDISEITGMSIGSAKVNYHHAVNSLKQWLS | -0.59
HMTTTAGTAVVQTGNSGKLNLREQAYSNAGILGRYSNGTIVTVLQKGSAWSYVEVQGQKGYMMSKFLRFT | 0.293
HMGYINLNVKVSPEWRDFWRSAYASVVAGYHQNKEHWNTIILDGSIPDKDIKRMIAESYDLVSD | -0.797
HMALDLNEDEKLLVELIEKAGGTAGLGELKEASGLSGKKWDKTTKNLSKEGLIKVEKNESGLWVHLT | 0.153
HMTRHSSVDFAGYILRNKENEPIFGFGKHKGKTVVEVLQREQGYFGWLMEADFPLYTKKVLTAIRLNTLNS | -0.117
HMELTVPDFTNMSLEDAINLAEKRDVRLEVTDSVFVKRLGRGFIYSQNPVAGSKVKKGRRILITINAIN | -2.53
HMEVTLTLKSFGTAKVAVIKAIQSITGLGLMDAKKLVDAAPSVIKEKISPSEAEQYKKTLVDAGAEVEI | -0.806
HMPVQPMDPSIEHISALTGKQFQAFPGQDHRAHMTAHLNFMSTNIVRNNPAVMGAIQKNILEHISLMAQEQ | 0.153
HMPTPLTPREHEIANLIAQGLSNREIADELVISPATAARHVANILAKLGFSSRTQVASWATRHD | -0.179
HMQLPTNAAAILRYLSSGAVKGVGSATAVRIVEKFGEETLNILEQDPLRLAEIRGISRDKAKKIGEDFASQ | -0.201
HMIADSSSIHQDAKQQLHSYLRTNIQPLMRAGKQLDLKDILHHVTIRKPKLVQQLGMKQVQHMVQVLLD | 0.224
HMSLLQDRQRHEALAALGYYRGSVSAAWGAASVEALKAAQAALGVEVDGKWGPKTEDVIQAALGT | -0.00704
HMESEIYKKIEKSRLLELAFTKSQKGDLTGAYDLYYQAFTKYDVIADNQNRYFEDFISLIRRKQQQD | -0.739
HMAEWLFDARKIPDEVMNYLRRIAVQAIEEKHYSPELVADLLGISRSSIYDWLNWYRNGGEEDLDTRKA | -0.613
HMNKSGVVLIRVTVDASGRVTSAAYEPKGSTTSDVELVAEARKAALRTRFTESRTVIEGGVITYIFKL | -2.28
HMSETEWGEIYRKVMAAGLIPARSVRERLLALPSIEPLLQAAEAAGSKGMLDETLLDSLLSKT | 0.134
HMDFSNVNFSQVSDSELDLLMRRASAQGYTQFDLLKIARAQGLTQAEIEKLDKRFKSAETVAYVAENA | 0.0939
HMELNESVLKALYEKFREMSGSKGFITEDEVIIQLEKENPDITPDQQAEIFKYLYDTPLQIY | -0.127
